B1: ANKRD17 (parent)
chain: EVLRRLTSSVSCALDEAAAALTRM
B2: PSD2 (parent)
chain: LTHFSRRYCQCNPDDSTSEDGIHT

Variants of: B1
Assay: protein stability index of a GFP-peptide fusion (GPS, HEK-293T) (PSI 1-6); higher = more stable
Conditions: c terminus: a fixed tail appended
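Further: lentivirally expressed fusions sorted by FACS into six bins by GFP to DsRed ratio, PSI derived from sequencing read proportions per bin multiplied by bin number.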

| Variant | protein stability index |
| --- | --- |
| A13L | 1.38 |
| A13S | 1.34 |
| A13K | 2.55 |
| A13T | 2.38 |
| A13N | 1.69 |
| A13E | 2.34 |
| A13V | 1.16 |
| A13P | 1.37 |
| A13M | 1.6 |
| A13Q | 1.59 |
| A13I | 2.26 |
| A13F | 2.2 |
| A13W | 2.07 |
| A13Y | 1.66 |
| A13R | 2.06 |
| A13H | 2.42 |
| A13C | 2.58 |
| D15C | 1.99 |
| D15N | 3.18 |
| D15E | 2.2 |
| D15H | 1.97 |
| D15G | 1.26 |
| D15M | 3.36 |
| D15Q | 1.87 |
| D15A | 1.35 |

| Variant | protein stability index |
| --- | --- |
| D15P | 2.37 |
| D15R | 1.85 |
| A20D | 1.65 |
| A20Y | 3.13 |
| A20N | 3.01 |
| A20L | 1.45 |
| A20V | 1.91 |
| A20M | 2.28 |
| A20R | 2.64 |
| A20F | 1.65 |
| A20K | 2.69 |
| A20Q | 3.08 |
| A20C | 2.73 |
| A20I | 2.52 |
| A20E | 3.31 |
| A20H | 1.52 |
| A20W | 2.48 |
| L14H | 2.13 |
| L14F | 1.23 |
| L14A | 2.23 |
| L14S | 2.72 |
| L14Q | 2.48 |
| L14V | 1.77 |
| L14Y | 2.27 |
| L14W | 1.81 |

| Variant | protein stability index |
| --- | --- |
| L14P | 1.93 |
| L14N | 2.11 |
| L14D | 1.94 |
| L14T | 2.77 |
| L14E | 3.61 |
| L14K | 1.79 |
| L14R | 1.57 |
| L14M | 2.81 |
| L14I | 2.22 |
| L14C | 2.2 |
| L21M | 1.5 |
| L21H | 1.89 |
| L21I | 1.93 |
| L21N | 3.47 |
| L21D | 1.53 |
| L21C | 1.18 |
| L21F | 1.65 |
| L21W | 1.6 |
| L21R | 5.02 |
| L21V | 2.04 |
| T22W | 1.46 |
| T22R | 1.31 |
| T22D | 2.22 |
| T22K | 1.86 |
| T22V | 1.24 |

| Variant | protein stability index |
| --- | --- |
| T22M | 2.39 |
| T22P | 2.33 |
| T22A | 1.94 |
| T22I | 2.36 |
| T22Q | 3 |
| T22N | 1.93 |
| T22H | 3.03 |
| T22C | 2.1 |
| T22Y | 1.85 |
| T22E | 2.06 |
| T22F | 2.21 |
| A17E | 2.24 |
| A17Y | 2.49 |
| A17L | 2.34 |
| A17M | 1.85 |
| A17F | 2.03 |
| A17T | 2.13 |
| A17V | 2.32 |
| A17I | 2.26 |
| A17C | 2.59 |
| A17S | 2.16 |
| A17D | 1.46 |
| A19T | 2.29 |
| A19H | 1.78 |
| A19N | 2.55 |

| Variant | protein stability index |
| --- | --- |
| A19E | 2.12 |
| A19F | 3.41 |
| A19P | 2.25 |
| A19Y | 2.92 |
| A19G | 2.3 |
| A19L | 2.35 |
| A19K | 2.6 |
| A19I | 1.88 |
| A19D | 1.83 |
| A19V | 2.99 |
| A19S | 2.16 |
| M24L | 2.81 |
| M24W | 3.27 |
| M24N | 1.65 |
| M24Y | 1.43 |
| M24H | 2.49 |
| M24T | 3.53 |
| M24R | 2.72 |
| M24I | 2.08 |
| M24D | 1.43 |
| M24C | 2.33 |
| M24S | 2.42 |
| M24F | 2.44 |
| M24Q | 2.2 |
| M24V | 1.07 |

| Variant | protein stability index |
| --- | --- |
| A18W | 1.64 |
| A18R | 2.43 |
| A18M | 2.25 |
| A18L | 1.68 |
| A18D | 1.89 |
| A18V | 1.8 |
| A18F | 1.94 |
| A18I | 2.33 |
| A18K | 2.92 |
| A18N | 1.8 |
| A18T | 2.27 |
| A18G | 1.85 |
| A18H | 1.68 |
| A18Q | 2.4 |
| A18Y | 1.69 |
| A18E | 1.24 |
| A18P | 2.72 |
| E16V | 1.6 |
| E16D | 1.72 |
| E16K | 1.54 |
| E16T | 1.88 |
| E16S | 2.96 |
| E16L | 3.18 |
| E16F | 3.12 |
| E16H | 1.8 |

| Variant | protein stability index |
| --- | --- |
| E16R | 2.09 |
| E16N | 3 |
| E16A | 2.32 |
| E16Y | 2.43 |
| E16I | 1.97 |
| E16Q | 2.56 |
| E16C | 2.46 |
| R23G | 2.35 |
| R23V | 1.02 |
| R23E | 2.64 |
| R23S | 1.93 |
| R23F | 4.05 |
| R23I | 1.92 |
| R23W | 3.5 |
| R23D | 2.8 |
| R23A | 2.91 |
| R23Q | 1.74 |
| R23P | 2.15 |
| R23K | 1.21 |
| R23N | 1.35 |
| R23M | 1.59 |
| R23H | 1.95 |
| C12W | 2.27 |
| C12V | 2.48 |
| C12Y | 1.65 |

Variants of: B2
Assay: as above
Conditions: c terminus: a fixed tail appended

| Variant | protein stability index |
| --- | --- |
| C9L | 3.67 |
| C9H | 3.84 |
| C9K | 4.39 |
| C9F | 3.83 |
| C9A | 4.23 |
| C9E | 4.16 |
| C9I | 3.96 |
| C9G | 4.15 |
| C9M | 4.16 |
| R6M | 3.29 |
| R6N | 4.12 |
| R6V | 3.08 |
| R6D | 4.93 |
| R6P | 3.9 |
| R6W | 2.95 |
| R6L | 3.3 |
| R6H | 3.93 |
| R6A | 4.22 |
| R6F | 2.33 |
| R6I | 2.75 |
| R6S | 4.02 |
| R6K | 3.21 |
| R6C | 2.8 |

| Variant | protein stability index |
| --- | --- |
| R6G | 4.2 |
| R6Q | 3.49 |
| R6T | 3.78 |
| R6E | 4.83 |
| R6Y | 2.74 |
| S5K | 2.57 |
| S5V | 2.67 |
| S5E | 3.97 |
| S5D | 4.38 |
| S5G | 3.78 |
| S5R | 2.53 |
| S5L | 3.06 |
| S5C | 2.71 |
| S5P | 3.4 |
| S5N | 3.69 |
| S5Q | 4.35 |
| S5Y | 2.27 |
| S5T | 3.42 |
| S5H | 3.36 |
| S5W | 1.94 |
| S5M | 2.89 |
| S5F | 2.18 |
| S5I | 2.34 |

| Variant | protein stability index |
| --- | --- |
| S5A | 3.43 |
| T2L | 2.41 |
| T2W | 2.28 |
| T2K | 2.47 |
| T2E | 4.41 |
| T2G | 3.67 |
| T2I | 3.01 |
| T2S | 3.23 |
| T2R | 2.63 |
| T2Q | 2.87 |
| T2F | 2.63 |
| T2M | 2.86 |
| T2Y | 2.79 |
| T2V | 2.24 |
| T2C | 2.51 |
| T2H | 3.9 |
| T2A | 3.18 |
| T2N | 3.74 |
| T2P | 3.26 |
| T2D | 4.29 |
| F4V | 3.16 |
| F4G | 4.57 |
| F4H | 4.51 |

| Variant | protein stability index |
| --- | --- |
| F4C | 3.38 |
| F4I | 3.17 |
| F4S | 3.61 |
| F4L | 3.5 |
| F4E | 4.55 |
| F4P | 4.18 |
| F4M | 3.49 |
| F4Q | 3.73 |
| F4T | 4.07 |
| F4D | 3.57 |
| F4W | 3.31 |
| F4Y | 2.85 |
| F4N | 4.51 |
| F4A | 4.42 |
| F4R | 3.33 |
| H3V | 3.69 |
| H3A | 3.54 |
| H3T | 3.28 |
| H3G | 2.92 |
| H3R | 3.62 |
| H3E | 3.61 |
| H3P | 3.03 |
| H3L | 2.96 |

| Variant | protein stability index |
| --- | --- |
| H3M | 2.62 |
| H3D | 4.38 |
| H3C | 2.73 |
| H3W | 2.16 |
| H3N | 3.55 |
| H3S | 3.29 |
| H3I | 2.83 |
| H3F | 2.16 |
| H3K | 3.52 |
| H3Q | 3.47 |
| H3Y | 3.13 |
| L1M | 3.16 |
| L1V | 3.77 |
| L1W | 3.36 |
| L1T | 3.75 |
| L1G | 3.79 |
| L1H | 3.66 |
| L1D | 4.21 |
| L1E | 3.17 |
| L1C | 3.89 |
| L1F | 2.72 |
| L1Q | 3.53 |
| L1P | 3.96 |

| Variant | protein stability index |
| --- | --- |
| L1N | 3.75 |
| L1I | 3.69 |
| L1K | 3.49 |
| L1Y | 1.62 |
| L1A | 3.56 |
| L1S | 3.7 |
| R7K | 3.53 |
| R7G | 2.93 |
| R7W | 2.32 |
| R7T | 4.01 |
| R7Y | 2.92 |
| R7V | 3.13 |
| R7M | 3.84 |
| R7C | 3.15 |
| R7L | 3.74 |
| R7F | 3.26 |
| R7A | 3.3 |
| R7N | 3.75 |
| R7P | 4.46 |
| R7E | 4.43 |
| R7D | 4.69 |
| R7I | 3.64 |
| R7Q | 4.57 |

| Variant | protein stability index |
| --- | --- |
| R7H | 3.8 |
| R7S | 3.51 |
| Y8C | 3.01 |
| Y8L | 3.86 |
| Y8N | 4.74 |
| Y8I | 3.48 |
| Y8R | 3.7 |
| Y8W | 2.36 |
| Y8H | 3.88 |
| Y8A | 3.75 |
| Y8T | 4.18 |
| Y8V | 3.8 |
| Y8P | 4.36 |
| Y8D | 4.72 |
| Y8M | 3.62 |
| Y8K | 3.66 |
| Y8F | 3.27 |
| Y8Q | 3.98 |
| Y8S | 3.93 |
| Y8E | 5.36 |
| Y8G | 3.57 |

— the supplement of paper PMC10567573
